Values quoted from earlier work as cited in article PMC3575173.

Biological target: TAMRA-TRTK-12 (UniProt P52907)

Kd: 1190 nM
Substance: S100B (from UniProt P04271)
